The supplement of paper PMC10201428
± gives the standard deviation of the averaged measurements.

What was measured:
[1] = test system: VchCAST RNA-guided transposition machinery (E. coli BL21(DE3) host, lacZ target); assay: relative integration efficiency (T-LR orientation) vs wild-type transposon end (log2 (normalized fold change)); transposon end mutated: right end (5 bp flank + 75 bp right end); higher = more efficient transposition
In short: (§1)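 Relative integration efficiency is a fold change of output over input barcode abundance, normalised to reference barcodes and log-transformed. Input plasmids and genomic integration junctions were PCR-amplified and Illumina-sequenced from E. coli BL21(DE3) co-transformed with a T7-driven effector plasmid and pUC57 donor pools of 1549 left-end or 1849 right-end transposon variants. Plating was done with 0.1 mM IPTG at 37°C for 18 h, with two biological output replicates and four reference barcodes.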

[2] = test system: VchCAST RNA-guided transposition machinery (E. coli BL21(DE3) host, lacZ target); assay: relative integration efficiency (T-RL orientation) vs wild-type transposon end (log2 (normalized fold change)); transposon end mutated: right end (5 bp flank + 75 bp right end); higher = more efficient transposition
In short: as §1

Sequence | relative integration efficiency (log2) [1] | relative integration efficiency (log2) [2]
ACATTTGTTGATACAACCATAAAAGGATAATTACCCCCATAAATTGATAATTATCCCACCCCATTTAACTATAACGCTCTGATCATAGTCAGACCAACATTGCTACGACCCGTATTCGCACCGACAC | 1.78 ± 0.039 | -1.2 ± 0.22
ACATTTGTTGATACAACCATAAAAGGATAATTACCCCCATCAATTGATAATTATCACACCCAATTTAACTATAACGCTCTGATCATAGTCAGACCAACATTGCTACGACCCGTATTCGCACCGACAC | -0.104 ± 0.42 | -2.86 ± 0.32
ACATTTGTTGATACAACCATAAAAGGATAATTACCCCCATCAATTGATAATTATCACACCCCATTTAACTATAACGCTCTGATCATAGTCAGACCAACATTGCTACGACCCGTATTCGCACCGACAC | -0.157 ± 0.13 | -3.19 ± 0.27
ACATTTGTTGATACAACCATAAAAGGATAATTACCCCCATCAATTGATAATTATCCCACCCAATTTAACTATAACGCTCTGATCATAGTCAGACCAACATTGCTACGACCCGTATTCGCACCGACAC | 1.91 ± 0.034 | -0.787 ± 0.53
ACATTTGTTGATACAACCATAAAAGGATAATTACCCCCATCAATTGATAATTATCCCACCCCATTTAACTATAACGCTCTGATCATAGTCAGACCAACATTGCTACGACCCGTATTCGCACCGACAC | -0.233 ± 0.32 | -2.87 ± 0.26
ACATTTGTTGATACAACCATAAAAGGATAATTCACCCATAAATTGATAATTATCACACCCACATTTAACTATAACGCTCTGATCATAGTCAGACCAACATTGCTACGACCCGTATTCGCACCGACAC | 0.902 ± 0.15 | -2.38 ± 0.38
ACATTTGTTGATACAACCATAAAAGGATAATTCACCCCTAAATTGATAATTATCACACCCACATTTAACTATAACGCTCTGATCATAGTCAGACCAACATTGCTACGACCCGTATTCGCACCGACAC | -0.705 ± 0.48 | -4.49 ± 0.25
ACATTTGTTGATACAACCATAAAAGGATCATTACACCCATAAATTGATAATTATCACACCCAATTTAACTATAACGCTCTGATCATAGTCAGACCAACATTGCTACGACCCGTATTCGCACCGACAC | 1.34 ± 0.27 | -2.03 ± 0.18
ACATTTGTTGATACAACCATAAAAGGATCATTACACCCATAAATTGATAATTATCACACCCCATTTAACTATAACGCTCTGATCATAGTCAGACCAACATTGCTACGACCCGTATTCGCACCGACAC | 1.27 ± 0.23 | -2.29 ± 0.32
ACATTTGTTGATACAACCATAAAAGGATCATTACACCCATAAATTGATAATTATCCCACCCAATTTAACTATAACGCTCTGATCATAGTCAGACCAACATTGCTACGACCCGTATTCGCACCGACAC | 1.75 ± 0.057 | -1.69 ± 0.47
ACATTTGTTGATACAACCATAAAAGGATCATTACACCCATAAATTGATAATTATCCCACCCCATTTAACTATAACGCTCTGATCATAGTCAGACCAACATTGCTACGACCCGTATTCGCACCGACAC | 1.38 ± 0.021 | -2.12 ± 0.38
ACATTTGTTGATACAACCATAAAAGGATCATTACACCCATCAATTGATAATTATCACACCCAATTTAACTATAACGCTCTGATCATAGTCAGACCAACATTGCTACGACCCGTATTCGCACCGACAC | -0.241 ± 0.022 | -3.44 ± 0.37
ACATTTGTTGATACAACCATAAAAGGATCATTACACCCATCAATTGATAATTATCACACCCCATTTAACTATAACGCTCTGATCATAGTCAGACCAACATTGCTACGACCCGTATTCGCACCGACAC | 0.228 ± 0.13 | -3.25 ± 0.32
ACATTTGTTGATACAACCATAAAAGGATCATTACACCCATCAATTGATAATTATCCCACCCAATTTAACTATAACGCTCTGATCATAGTCAGACCAACATTGCTACGACCCGTATTCGCACCGACAC | 0.119 ± 0.061 | -2.99 ± 0.16
ACATTTGTTGATACAACCATAAAAGGATCATTACACCCATCAATTGATAATTATCCCACCCCATTTAACTATAACGCTCTGATCATAGTCAGACCAACATTGCTACGACCCGTATTCGCACCGACAC | -0.014 ± 0.4 | -3.29 ± 0.28
ACATTTGTTGATACAACCATAAAAGGATCATTACCCCCATAAATTGATAATTATCACACCCAATTTAACTATAACGCTCTGATCATAGTCAGACCAACATTGCTACGACCCGTATTCGCACCGACAC | 0.679 ± 0.16 | -2.28 ± 0.24
ACATTTGTTGATACAACCATAAAAGGATCATTACCCCCATAAATTGATAATTATCACACCCCATTTAACTATAACGCTCTGATCATAGTCAGACCAACATTGCTACGACCCGTATTCGCACCGACAC | 1.16 ± 0.12 | -2.55 ± 0.35
ACATTTGTTGATACAACCATAAAAGGATCATTACCCCCATAAATTGATAATTATCCCACCCAATTTAACTATAACGCTCTGATCATAGTCAGACCAACATTGCTACGACCCGTATTCGCACCGACAC | 0.912 ± 0.11 | -2.19 ± 0.29

Sequence | relative integration efficiency (log2) [1] | relative integration efficiency (log2) [2]
ACATTTGTTGATACAACCATAAAAGGATCATTACCCCCATAAATTGATAATTATCCCACCCCATTTAACTATAACGCTCTGATCATAGTCAGACCAACATTGCTACGACCCGTATTCGCACCGACAC | 0.775 ± 0.15 | -2.25 ± 0.25
ACATTTGTTGATACAACCATAAAAGGATCATTACCCCCATCAATTGATAATTATCACACCCAATTTAACTATAACGCTCTGATCATAGTCAGACCAACATTGCTACGACCCGTATTCGCACCGACAC | -1.13 ± 0.29 | -4.48 ± 0.1
ACATTTGTTGATACAACCATAAAAGGATCATTACCCCCATCAATTGATAATTATCACACCCCATTTAACTATAACGCTCTGATCATAGTCAGACCAACATTGCTACGACCCGTATTCGCACCGACAC | -1.38 ± 0.048 | -4.59 ± 0.85
ACATTTGTTGATACAACCATAAAAGGATCATTACCCCCATCAATTGATAATTATCCCACCCAATTTAACTATAACGCTCTGATCATAGTCAGACCAACATTGCTACGACCCGTATTCGCACCGACAC | -0.858 ± 0.08 | -3.59 ± 0.36
ACATTTGTTGATACAACCATAAAAGGATCATTACCCCCATCAATTGATAATTATCCCACCCCATTTAACTATAACGCTCTGATCATAGTCAGACCAACATTGCTACGACCCGTATTCGCACCGACAC | -1.31 ± 0.15 | -4.43 ± 0.28
ACATTTGTTGATACAACCATAAAAGGATCATTCACCCATAAATTGATAATTATCACACCCACATTTAACTATAACGCTCTGATCATAGTCAGACCAACATTGCTACGACCCGTATTCGCACCGACAC | -0.0129 ± 0.14 | -3.13 ± 0.14
ACATTTGTTGATACAACCATAAAAGGATCATTCACCCCTAAATTGATAATTATCACACCCACATTTAACTATAACGCTCTGATCATAGTCAGACCAACATTGCTACGACCCGTATTCGCACCGACAC | -1.36 ± 0.36 | -4.73 ± 0.18
ACATTTGTTGATACAACCATAAAAGGATTATTACACCCATTAATTGATAATTATCACACCCAATTTAACTATAACGCTCTGATCATAGTCAGACCAACATTGCTACGACCCGTATTCGCACCGACAC | 1.27 ± 0.069 | -2.02 ± 0.28
ACATTTGTTGATACAACCATAAAAGTATAATTACACCCATAAATTGATAATTATCACACCCATAAATTGATATTGCCTCTGATCATAGTCAGACCAACATTGCTACGACCCGTATTCGCACCGACAC | -0.606 ± 0.35 | -0.954 ± 0.16
ACATTTGTTGATACAACCATAAAAGTCGAATTACACCCATAAATTGATAATTATCACACCCATAAATTGATATTGCCTCTGATCATAGTCAGACCAACATTGCTACGACCCGTATTCGCACCGACAC | -3.24 ± 0.7 | -2.69 ± 0.26
ACATTTGTTGATACAACCATAAAAGTCGCCGGCACAAACGCCCGGTCGCCGGCGACACAAACGCCCGGTCGCGGTAAGAGGATCATAGTCAGACCAACATTGCTACGACCCGTATTCGCACCGACAC | -2.61 ± 0.042 | -5.34 ± 0.34
ACATTTGTTGATACAACCATAAAATCATAATTACACCCATAAATTCATAATTATCACACCCATAAATTCATATTGCCTCTGATCATAGTCAGACCAACATTGCTACGACCCGTATTCGCACCGACAC | -1.52 ± 0.48 | -4.92 ± 0.57
ACATTTGTTGATACAACCATAAAATCATAATTACACCCATAAATTGATAATTATCACACCCCATTTAACTATAACGCTCTGATCATAGTCAGACCAACATTGCTACGACCCGTATTCGCACCGACAC | 1.21 ± 0.17 | -2.85 ± 0.24
ACATTTGTTGATACAACCATAAAATCATAATTACACCCATAAATTGATAATTATCCCACCCAATTTAACTATAACGCTCTGATCATAGTCAGACCAACATTGCTACGACCCGTATTCGCACCGACAC | 1.64 ± 0.041 | -2.19 ± 0.14
ACATTTGTTGATACAACCATAAAATCATAATTACACCCATAAATTGATAATTATCCCACCCCATTTAACTATAACGCTCTGATCATAGTCAGACCAACATTGCTACGACCCGTATTCGCACCGACAC | 1.23 ± 0.046 | -2.73 ± 0.22
ACATTTGTTGATACAACCATAAAATCATAATTACACCCATCAATTGATAATTATCACACCCAATTTAACTATAACGCTCTGATCATAGTCAGACCAACATTGCTACGACCCGTATTCGCACCGACAC | -0.27 ± 0.36 | -4.01 ± 0.22
ACATTTGTTGATACAACCATAAAATCATAATTACACCCATCAATTGATAATTATCACACCCCATTTAACTATAACGCTCTGATCATAGTCAGACCAACATTGCTACGACCCGTATTCGCACCGACAC | -0.773 ± 0.047 | -4.31 ± 0.11
